{
  "source": "paper PMC7985572",
  "about": "“Backbone chemical shift spectral assignments of SARS coronavirus-2 non-structural protein nsp9” (Biomolecular Nmr Assignments, 2021)",
  "target": "the molecule itself",
  "assay": "SEC",
  "data": [
    {"protein": "SARS-CoV-2 non-structural protein 9 (nsp9) (natural protein, also called non-structural protein nsp9; sample A; not shown: His6, N-terminal, cleaved; GST, N-terminal, cleaved) GAMGNNELSPVALRQMSCAAGTTQTACTDDNALAYYNTTKGGRFVLALLSDLQDLKWARFPKSDGTGTIYTELEPPCRFVTDTPKGPKVKYLYFIKGLNNLNRGMVLGSLAATVRLQ", "values": [
      {"measurement": "stoichiometry N", "value": 2}
    ]}
  ]
}
